One data set has as its target T1, purified kidney DPIV (Sus scrofa, UniProt P22411).
T1 construct: The hydrolysis of peptide analogues by purified kidney DPIV was studied as described previously [12]; from tissue; host or cells: kidney
Nature of the data set: Determination of DPIV resistance by MALDI-TOF mass spectrometry. The class given is in vitro ADME. Conditions: for half-life: read-out: half life after incubation with DP IV. As for the experimental part: The hydrolysis of peptide analogues by purified kidney DPIV was studied as described previously. […] Samples were removed from the incubation mixture and prepared for MALDI-TOF mass spectrometry, as described in Pauly, […]., Pederson, R. A., and Demuth, H. U.

Data set [1] addresses T2, rat pancreatic islet (wild type) GIP-receptor stably expressed on CHO-K1 cells (rat, UniProt P43219 19-455).
T2 sequence (looked up): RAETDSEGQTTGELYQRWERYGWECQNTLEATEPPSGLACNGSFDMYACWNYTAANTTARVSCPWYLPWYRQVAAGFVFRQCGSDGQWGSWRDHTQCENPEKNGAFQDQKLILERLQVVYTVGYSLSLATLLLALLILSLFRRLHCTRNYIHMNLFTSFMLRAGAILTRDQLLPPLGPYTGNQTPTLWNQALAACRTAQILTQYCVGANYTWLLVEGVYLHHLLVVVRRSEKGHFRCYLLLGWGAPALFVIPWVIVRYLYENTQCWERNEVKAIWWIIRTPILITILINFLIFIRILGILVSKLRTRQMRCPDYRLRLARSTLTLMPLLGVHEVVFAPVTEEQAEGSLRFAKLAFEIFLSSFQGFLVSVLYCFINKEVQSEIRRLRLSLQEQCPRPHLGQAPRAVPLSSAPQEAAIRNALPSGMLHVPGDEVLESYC
As to the kind of experiment: cell-based or functional assay.

For data set [2], the target named is T2, rat pancreatic islet (wild type) …. Nature of the data set: displacement of 125I-GIP from CHO-K1 cells transfected with rat GIP receptor, 20 µM peptide. As for the experimental part:
(§1) Cells were cultured in DMEM/F12, supplemented with 10% newborn calf serum, 50 units/ml penicillin G, and 50 μg/ml streptomycin (Culture media and antibiotics from Gibco BRL, Life Technologies). Cells were grown in 75 cm² flasks until 80-90% confluent, when they were split and seeded onto 24 well plates at a density of 50,000 cells/well. Experiments were carried out 48 h later.
(§2) Binding studies using ¹²⁵I-labeled spGIP₁₋₄₂, purified by high performance liquid chromatography (HPLC), were performed essentially as described previously-[21]. wtGIP-R1 Cells (1-5×10⁵/well) were washed twice at 4° C. in binding buffer (BB), consisting of DMEM/F12 (GIBCO), 15 mM HEPES, 0.1% bovine serum albumin (BSA), 1% Trasylol (aprotinin; Bayer), pH 7.4. They were incubated for 12-16 h at 4° C. with ¹²⁵I-spGIP (50,000 cpm) in the presence or absence of unlabeled GIP₁₋₄₂ or analogue. Following incubation, cells were washed twice with ice cold buffer, solubilized with 0.1 M NaOH (1 ml), and transferred to culture tubes for counting of cell-associated radioactivity. Nonspecific binding was defined as that measured in the presence of 1 μM GIP₁₋₄₂ or GIP₁₋₃₀, and specific binding expressed as % of binding in the absence of competitor (% B/Bo).
For orientation: In a radioligand displacement assay an active substance lowers the binding of a labelled ligand.

The target is the same in data set [3]. Nature of the data set: competition with 125I-GIP on CHO-K1 cells transfected with rat GIP receptor. As for the experimental part: as §1, §2
Setting [4] is: purified kidney DPIV, 0.04 M Tris buffer pH 7.6, up to 24 h, MALDI-TOF MS.

Square brackets hold non-standard residues; d marks the D form. Ends that are not written are not given here. Peptide text beside a SMILES is read from it. Ahx = NCCCCCC(=O)O

T1 sequence (P22411 whole entry): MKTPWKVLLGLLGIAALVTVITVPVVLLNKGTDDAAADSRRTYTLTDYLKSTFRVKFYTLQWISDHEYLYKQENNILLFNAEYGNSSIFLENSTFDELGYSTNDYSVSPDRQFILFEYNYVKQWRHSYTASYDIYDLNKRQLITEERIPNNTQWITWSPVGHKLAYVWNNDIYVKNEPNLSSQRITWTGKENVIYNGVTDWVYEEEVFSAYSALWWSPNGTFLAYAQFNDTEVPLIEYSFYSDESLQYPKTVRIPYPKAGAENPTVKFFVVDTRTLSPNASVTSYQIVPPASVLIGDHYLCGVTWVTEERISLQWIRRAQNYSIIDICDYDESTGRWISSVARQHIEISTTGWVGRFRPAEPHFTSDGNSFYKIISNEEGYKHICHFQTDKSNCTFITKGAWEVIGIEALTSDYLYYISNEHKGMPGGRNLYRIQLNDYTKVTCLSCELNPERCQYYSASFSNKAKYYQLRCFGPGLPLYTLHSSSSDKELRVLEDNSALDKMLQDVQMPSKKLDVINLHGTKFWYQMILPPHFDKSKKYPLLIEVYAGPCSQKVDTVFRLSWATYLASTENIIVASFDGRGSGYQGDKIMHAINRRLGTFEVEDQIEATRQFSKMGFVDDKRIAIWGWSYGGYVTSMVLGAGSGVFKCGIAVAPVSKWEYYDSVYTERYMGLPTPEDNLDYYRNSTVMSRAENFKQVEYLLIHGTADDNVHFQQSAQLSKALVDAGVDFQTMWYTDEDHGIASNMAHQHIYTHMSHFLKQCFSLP

As to `C[C@@H](NC(=O)[C@@H](N)Cc1ccc(O)cc1)C(=O)N[C@@H](CCC(=O)O)C(=O)NCC(=O)N[C@H](C(=O)N[C@@H](Cc1ccccc1)C(N)=O)[C@@H](C)O` [D-Ala^2-GIP1-6a] (H-Y[dA]EGTF-NH2), the “half life after incubation with DP IV” value on purified kidney DPIV (setting [4]) is “stable”.

Regarding `CC[C@H](C)[C@H](NC(=O)[C@H](CO)NC(=O)[C@H](Cc1ccc(O)cc1)NC(=O)[C@H](CC(=O)O)NC(=O)[C@H](CO)NC(=O)[C@@H](NC(=O)[C@H](Cc1ccccc1)NC(=O)[C@@H](NC(=O)CNC(=O)[C@H](CCC(=O)O)NC(=O)[C@@H](C)NC(=O)[C@@H](N)Cc1ccc(O)cc1)[C@@H](C)O)[C@@H](C)CC)C(=O)N[C@@H](C)C(=O)N[C@@H](CCSC)C(=O)O` [D-Ala^2-GIP1-14], the “half life after incubation with DP IV” value at purified kidney DPIV (setting [4]) is listed as “stable”.

Consider `CC[C@H](C)[C@H](NC(=O)[C@H](CO)NC(=O)[C@H](Cc1ccc(O)cc1)NC(=O)[C@H](CC(=O)O)NC(=O)[C@H](CO)NC(=O)[C@@H](NC(=O)[C@H](Cc1ccccc1)NC(=O)[C@@H](NC(=O)CNC(=O)[C@H](CCC(=O)O)NC(=O)[C@H](C)NC(=O)[C@@H](N)Cc1ccc(O)cc1)[C@@H](C)O)[C@@H](C)CC)C(=O)N[C@@H](C)C(=O)O` [GIP1-13], for which the half-life on purified kidney DPIV (setting [4]) stood at 11.5 ± 2.5 min.

For the molecule `CC[C@H](C)[C@H](NC(=O)[C@H](CO)NC(=O)[C@H](Cc1ccc(O)cc1)NC(=O)[C@H](CC(=O)O)NC(=O)[C@H](CO)NC(=O)[C@@H](NC(=O)[C@H](Cc1ccccc1)NC(=O)[C@@H](NC(=O)CNC(=O)[C@H](CCC(=O)O)NC(=O)[C@H](C)NC(=O)[C@@H](N)Cc1ccc(O)cc1)[C@@H](C)O)[C@@H](C)CC)C(=O)N[C@@H](C)C(=O)N[C@@H](CCSC)C(=O)N[C@@H](CC(=O)O)C(=O)O` [GIP1-15], the half-life on purified kidney DPIV (setting [4]) is 35 ± 5.2 min.

As for “D-Ala^2-GIP1-30a: GIP1-30 analog, N-terminal sequence Tyr-D-Ala-Glu-Gly (Y[dA]EGTFISDYSIAMDKIRQQDFVNWLLAQK-NH2)”, the “half life after incubation with DP IV” value with purified kidney DPIV (pH 7.6) is “stable”.

For “Tyr-Ala-Ψ(CH2NH2)-Glu-Gly-Thr-Phe-Ile-Ser-Asp-Tyr-Ser-Ile-Ala-Met (EGTFISDYSIAM; not fully specified; N-terminal Tyr-Ala reduced bond, C-amide; printed: Glu-Gly-Thr-Phe-Ile-Ser-Asp-Tyr-Ser-Ile-Ala-Met) [YAψ(CH2NH)-GIP3-14a, GIP1-14 analogue with a reduced peptide bond]”, the “half life after incubation with DP IV” value with purified kidney DPIV (pH 7.6) is “stable”.

“Tyr-Ala-ψ(CH2NH)-Glu-Gly-Thr-Phe-Ile-Ser-Asp-Tyr-Ser-Ile-Ala-Met-Asp-Lys-Ile-His-Gln-Gln-Asp-Phe-Val-Asn-Trp-Leu-Leu-Ala-Gln-Lys [YAψ(CH2NH)-GIP3-30a]”: the “half life after incubation with DP IV” value in the data set with purified kidney DPIV (pH 7.6) was “stable”.

For YAPGTF-NH2 [Pro3-GIP1-6a], the “half life after incubation with DP IV” value on purified kidney DPIV (setting [4]) is “stable”.

For the molecule YAPGTFISDYSIAM [Pro^3-GIP1-14], the “half life after incubation with DP IV” value at purified kidney DPIV (setting [4]) is recorded as “stable”.

In the case of YGEGTF-NH2 [Gly^2-GIP1-6a], the “half life after incubation with DP IV” value on purified kidney DPIV (setting [4]) is “Not detectable^b”.

For YSEGTF-NH2 [Ser^2-GIP1-6a], the half-life at purified kidney DPIV (setting [4]) came to 79 ± 12.2 min.

Turning to YVEGTF-NH2 [Val^2-GIP1-6a], at purified kidney DPIV (setting [4]), the “half life after incubation with DP IV” value is reported as “Not detectable”.

B1: GIP(1-14)(Ahx)3(19-30)NH2 (peptide, UniProt P09681 52-65, looked up)
peptide: YAEGTFISDYSIAM[Ahx][Ahx][Ahx]QQDFVNWLLAQK-NH2
modifications: N-terminus assumed
SMILES: CC[C@H](C)[C@H](NC(=O)[C@H](CO)NC(=O)[C@H](Cc1ccc(O)cc1)NC(=O)[C@H](CC(=O)O)NC(=O)[C@H](CO)NC(=O)[C@@H](NC(=O)[C@H](Cc1ccccc1)NC(=O)[C@@H](NC(=O)CNC(=O)[C@H](CCC(=O)O)NC(=O)[C@H](C)NC(=O)[C@@H](N)Cc1ccc(O)cc1)[C@@H](C)O)[C@@H](C)CC)C(=O)N[C@@H](C)C(=O)N[C@@H](CCSC)C(=O)NCCCCCC(=O)NCCCCCC(=O)NCCCCCC(=O)N[C@@H](CCC(N)=O)C(=O)N[C@@H](CCC(N)=O)C(=O)N[C@@H](CC(=O)O)C(=O)N[C@@H](Cc1ccccc1)C(=O)N[C@H](C(=O)N[C@@H](CC(N)=O)C(=O)N[C@@H](Cc1c[nH]c2ccccc12)C(=O)N[C@@H](CC(C)C)C(=O)N[C@@H](CC(C)C)C(=O)N[C@@H](C)C(=O)N[C@@H](CCC(N)=O)C(=O)N[C@@H](CCCCN)C(N)=O)C(C)C
notes: range 52-65; also called GlP(1-14)(Ahx)3(19-30)NH2
Turning to B1, in data set [1], the “Max. cAMP (Fold Basal)” value came to 49.5 fold basal and the “cAMP Production EC50” value was roughly 20000 nM. The “% Displacement at 20 µM” value in data set [2] is 82.7%. In data set [3], this molecule showed an IC50 of 3210 nM.

B2: GIP(1-14)(EKEK)(19-30)NH2 (peptide)
peptide: YAEGTFISDYSIAMEKEKQQDFVNWLLAQK-NH2
notes: range 1-14;range 19-30
In the case of B2, in data set [1], the “Max. cAMP (Fold Basal)” value amounted to 80.6 fold basal and the “cAMP Production EC50” value came to 0.077 nM. The “% Displacement at 20 µM” value in data set [2] is 98.7%. The molecule further had an IC50 in data set [3] of 26 nM.

B3: GIP(1-14)(Ahx)1(19-30)NH2 (peptide, UniProt P09681 52-65, looked up)
peptide: YAEGTFISDYSIAM[Ahx]QQDFVNWLLAQK-NH2
modifications: N-terminus assumed
SMILES: CC[C@H](C)[C@H](NC(=O)[C@H](CO)NC(=O)[C@H](Cc1ccc(O)cc1)NC(=O)[C@H](CC(=O)O)NC(=O)[C@H](CO)NC(=O)[C@@H](NC(=O)[C@H](Cc1ccccc1)NC(=O)[C@@H](NC(=O)CNC(=O)[C@H](CCC(=O)O)NC(=O)[C@H](C)NC(=O)[C@@H](N)Cc1ccc(O)cc1)[C@@H](C)O)[C@@H](C)CC)C(=O)N[C@@H](C)C(=O)N[C@@H](CCSC)C(=O)NCCCCCC(=O)N[C@@H](CCC(N)=O)C(=O)N[C@@H](CCC(N)=O)C(=O)N[C@@H](CC(=O)O)C(=O)N[C@@H](Cc1ccccc1)C(=O)N[C@H](C(=O)N[C@@H](CC(N)=O)C(=O)N[C@@H](Cc1c[nH]c2ccccc12)C(=O)N[C@@H](CC(C)C)C(=O)N[C@@H](CC(C)C)C(=O)N[C@@H](C)C(=O)N[C@@H](CCC(N)=O)C(=O)N[C@@H](CCCCN)C(N)=O)C(C)C
notes: range 52-65
Take B3: in data set [1], the “Max. cAMP (Fold Basal)” value was determined as 102 fold basal and the “cAMP Production EC50” value is 1410 nM. The “% Displacement at 20 µM” value in data set [2] was 86.1%. In addition, in data set [3], the IC50 amounted to 2710 nM.

B4: GIP(1-14)(Ahx)2(19-30)NH2 (peptide, UniProt P09681 52-65, looked up)
peptide: YAEGTFISDYSIAM[Ahx][Ahx]QQDFVNWLLAQK-NH2
modifications: N-terminus assumed
SMILES: CC[C@H](C)[C@H](NC(=O)[C@H](CO)NC(=O)[C@H](Cc1ccc(O)cc1)NC(=O)[C@H](CC(=O)O)NC(=O)[C@H](CO)NC(=O)[C@@H](NC(=O)[C@H](Cc1ccccc1)NC(=O)[C@@H](NC(=O)CNC(=O)[C@H](CCC(=O)O)NC(=O)[C@H](C)NC(=O)[C@@H](N)Cc1ccc(O)cc1)[C@@H](C)O)[C@@H](C)CC)C(=O)N[C@@H](C)C(=O)N[C@@H](CCSC)C(=O)NCCCCCC(=O)NCCCCCC(=O)N[C@@H](CCC(N)=O)C(=O)N[C@@H](CCC(N)=O)C(=O)N[C@@H](CC(=O)O)C(=O)N[C@@H](Cc1ccccc1)C(=O)N[C@H](C(=O)N[C@@H](CC(N)=O)C(=O)N[C@@H](Cc1c[nH]c2ccccc12)C(=O)N[C@@H](CC(C)C)C(=O)N[C@@H](CC(C)C)C(=O)N[C@@H](C)C(=O)N[C@@H](CCC(N)=O)C(=O)N[C@@H](CCCCN)C(N)=O)C(C)C
notes: range 52-65
As for B4, in data set [1], the “Max. cAMP (Fold Basal)” value stood at 95.9 fold basal and the “cAMP Production EC50” value is 2510 nM. Further, the “% Displacement at 20 µM” value in data set [2] worked out at 85.8%. Moreover, in data set [3], the IC50 was determined as 2770 nM.

By half-life is commonly meant the time in which the quantity being followed falls by half. By IC50 is commonly meant the concentration that gives 50% inhibition. A high value points to a need for much substance.

The values are drawn from patent US20050137135A1 (priority 2002, published 2005).
